Laboratory results: patent publication US20130156764A1, “NEUTRALIZATION OF FLT3 LIGAND AS A LEUKEMIA THERAPY” (The Johns Hopkins University, priority 2010, published 2013)

How the values were obtained:
[1] = system: FLT3 autophosphorylation in Molm14 cells (FLT3/ITD); assay: Inhibition of FLT3 autophosphorylation in Molm14 cells in presence of FL (immunoblot); type: cell-based; conditions: for effect of FL on dose response curve for inhibition of FLT3 autophosphorylation: exogenous FL, in medium and plasma; for effect of addition of FL on inhibition at the highest doses used: medium and plasma
Description: (§1) Leukemia cells were washed in PBS, then lysed by re-suspending them in lysis buffer (20 mM Tris pH 7.4, 100 mM NaCl, 1% Igepal (Sigma, St. Louis, Mo.), 1 mM EDTA, 2 mM NaV04, plus Complete protease inhibitor (Roche)) for 30 minutes while rocking. The extract was clarified by centrifugation at 14,000 rpm and the supernatant was assayed for protein (Bio-Rad, Richmond, Calif.). A 50 μg aliquot was removed as whole-cell lysate for analysis of STAT5, and the remainder was used for immunoprecipitation with anti-FLT3 antibody. Anti-FLT3 antibody (SI8; Santa Cruz Biotechnology, Santa Cruz, Calif.) was added to the extract for overnight incubation, then protein A sepharose (Upstate Biotechnology, Lake Placid, N.Y.) was added for 2 additional hours. Separate SDS-PAGE (sodium dodecylsulfate polyacrylamide electrophoresis) gels for whole-cell lysate and immunoprecipitates were run in parallel, After transfer to Immobilon membranes (Millipore, Bedford, Mass.), immunoblotting was performed with antiphosphotyrosine antibody (4G10; Upstate Biotechnology, Lake Placid, N.Y.) to detect phosphorylated FLT3, and then stripped and re-probed with anti-FLT3 antibody to measure total FLT3. Proteins were visualized using chemiluminescence (ECL; GE Healthcare, Piscataway, N.J.), exposed on Kodak BioMax XAR Film, developed, and scanned using a BioRad GS800 densitometer.

FLT3 [2] = assay: Plasma inhibitory activity (PIA) assay for FLT3 with patient plasma on TF/ITD cells; type: cell-based, human; conditions: for mean PIA value: AML15 trial
Description: as §1
Frozen plasma samples were thawed and clarified by centrifugation at 14,000 rpm for 2 minutes. All assays described herein were performed within 12 months of collection. For each time point, 2×10^6 TF/ITD were incubated with 1 ml plasma at 37° C. for 1 hour. The cells were washed twice with ice-cold PBS then lysed. After immunoblotting for phosphorylated FLT3 as described above, densitometric analysis was performed on the bands and the PIA for a given plasma sample was calculated by expressing the density of its corresponding band as a percentage of the density of the baseline band (which was arbitrarily set at 100%).

FLT3 [3] = conditions: previous monotherapy trials; cited from earlier work
[4] = target: T1, wild-type FLT3 (full-length, expressed in FL-/- MEF cells) (human) (UniProt P36888); assay: cell-based or functional assay
T1 sequence: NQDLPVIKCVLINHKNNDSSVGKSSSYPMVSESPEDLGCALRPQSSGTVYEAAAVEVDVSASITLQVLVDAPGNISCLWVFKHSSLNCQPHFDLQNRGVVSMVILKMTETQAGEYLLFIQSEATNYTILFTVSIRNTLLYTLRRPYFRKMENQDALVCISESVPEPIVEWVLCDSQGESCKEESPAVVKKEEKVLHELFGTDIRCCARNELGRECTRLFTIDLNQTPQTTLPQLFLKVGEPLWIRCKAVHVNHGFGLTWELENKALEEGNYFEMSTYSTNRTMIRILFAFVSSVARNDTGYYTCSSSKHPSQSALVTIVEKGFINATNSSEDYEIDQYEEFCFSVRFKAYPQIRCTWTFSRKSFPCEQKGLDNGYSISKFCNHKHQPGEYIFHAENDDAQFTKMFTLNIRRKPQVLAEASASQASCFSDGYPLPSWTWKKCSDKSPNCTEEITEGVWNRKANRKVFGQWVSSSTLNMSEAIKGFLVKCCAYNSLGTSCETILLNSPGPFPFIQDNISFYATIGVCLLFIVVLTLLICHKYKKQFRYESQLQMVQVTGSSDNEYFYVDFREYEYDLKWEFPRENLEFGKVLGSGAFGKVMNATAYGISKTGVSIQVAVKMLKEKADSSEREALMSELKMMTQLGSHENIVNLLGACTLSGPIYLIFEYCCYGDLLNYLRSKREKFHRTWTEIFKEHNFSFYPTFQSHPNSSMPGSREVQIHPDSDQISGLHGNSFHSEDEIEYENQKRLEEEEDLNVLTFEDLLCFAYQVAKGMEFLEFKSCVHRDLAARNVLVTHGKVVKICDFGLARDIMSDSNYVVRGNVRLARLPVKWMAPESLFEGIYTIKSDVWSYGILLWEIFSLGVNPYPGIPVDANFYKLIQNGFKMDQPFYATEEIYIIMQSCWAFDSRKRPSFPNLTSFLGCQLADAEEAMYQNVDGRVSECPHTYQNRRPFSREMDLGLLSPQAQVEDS

[5] = target: T2, FLT3/ITD mutant (addition of 6 amino acids, RTDFRE, after amino acid No. 596 of full-length FLT3) (human) (UniProt P36888); assay: cell-based or functional assay
T2 sequence: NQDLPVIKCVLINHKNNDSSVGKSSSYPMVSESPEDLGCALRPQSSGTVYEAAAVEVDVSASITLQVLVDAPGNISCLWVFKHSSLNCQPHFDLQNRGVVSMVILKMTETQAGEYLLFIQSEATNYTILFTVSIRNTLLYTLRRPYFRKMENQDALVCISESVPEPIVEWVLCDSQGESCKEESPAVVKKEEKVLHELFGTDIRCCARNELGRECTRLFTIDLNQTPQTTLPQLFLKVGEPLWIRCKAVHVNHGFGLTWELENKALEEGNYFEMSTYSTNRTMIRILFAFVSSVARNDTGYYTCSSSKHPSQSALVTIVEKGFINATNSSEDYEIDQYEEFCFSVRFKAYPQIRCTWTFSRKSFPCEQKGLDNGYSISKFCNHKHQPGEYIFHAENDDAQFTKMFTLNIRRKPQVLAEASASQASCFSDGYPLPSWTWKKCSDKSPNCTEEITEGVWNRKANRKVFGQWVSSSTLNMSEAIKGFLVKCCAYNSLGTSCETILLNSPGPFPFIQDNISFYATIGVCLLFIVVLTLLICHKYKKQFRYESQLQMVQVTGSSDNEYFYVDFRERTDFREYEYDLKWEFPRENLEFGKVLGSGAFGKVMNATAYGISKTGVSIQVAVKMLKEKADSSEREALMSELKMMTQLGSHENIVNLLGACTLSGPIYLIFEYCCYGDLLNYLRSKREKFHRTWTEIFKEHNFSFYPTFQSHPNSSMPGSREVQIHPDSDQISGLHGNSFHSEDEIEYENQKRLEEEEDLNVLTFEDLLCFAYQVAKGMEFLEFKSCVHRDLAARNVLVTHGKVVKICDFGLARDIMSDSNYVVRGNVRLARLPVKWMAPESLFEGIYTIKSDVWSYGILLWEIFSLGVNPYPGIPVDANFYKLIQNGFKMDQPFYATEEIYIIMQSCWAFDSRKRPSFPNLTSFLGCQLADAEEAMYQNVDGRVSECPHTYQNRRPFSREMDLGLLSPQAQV

[6] = target: T3, FLT3/TKD mutant (D835, Aspartic acid to Tyrosine change, in full-length FLT3) (human) (UniProt P36888); assay: cell-based or functional assay
T3 sequence: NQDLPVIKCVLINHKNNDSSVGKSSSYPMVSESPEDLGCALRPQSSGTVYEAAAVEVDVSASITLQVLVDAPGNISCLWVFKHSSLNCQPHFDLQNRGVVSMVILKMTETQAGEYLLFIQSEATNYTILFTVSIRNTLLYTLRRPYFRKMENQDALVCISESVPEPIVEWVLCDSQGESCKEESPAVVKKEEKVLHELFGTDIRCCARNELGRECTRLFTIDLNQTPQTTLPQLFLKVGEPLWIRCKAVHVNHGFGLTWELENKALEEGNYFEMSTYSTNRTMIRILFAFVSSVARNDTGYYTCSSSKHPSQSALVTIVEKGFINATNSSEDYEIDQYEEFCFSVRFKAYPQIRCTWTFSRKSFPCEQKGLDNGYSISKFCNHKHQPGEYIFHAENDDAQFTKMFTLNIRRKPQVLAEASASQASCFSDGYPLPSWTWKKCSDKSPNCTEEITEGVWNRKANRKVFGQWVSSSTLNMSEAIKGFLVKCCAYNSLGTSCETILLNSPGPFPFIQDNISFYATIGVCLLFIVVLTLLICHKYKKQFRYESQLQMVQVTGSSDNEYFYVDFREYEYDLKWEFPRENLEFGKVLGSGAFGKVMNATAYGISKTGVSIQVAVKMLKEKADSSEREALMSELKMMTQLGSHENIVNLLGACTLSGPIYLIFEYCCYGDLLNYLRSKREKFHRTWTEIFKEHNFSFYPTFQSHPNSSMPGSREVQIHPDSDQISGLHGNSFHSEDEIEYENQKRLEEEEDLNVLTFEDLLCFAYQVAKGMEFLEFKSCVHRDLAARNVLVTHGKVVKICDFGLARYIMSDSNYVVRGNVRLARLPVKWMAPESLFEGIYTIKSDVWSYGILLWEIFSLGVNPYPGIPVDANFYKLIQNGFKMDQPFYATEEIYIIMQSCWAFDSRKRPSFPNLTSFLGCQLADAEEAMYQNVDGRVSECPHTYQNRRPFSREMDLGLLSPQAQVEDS

## O=C(c1ccc(/C=C/c2n[nH]c3ccccc23)cc1)N1CCNCC1 [KW-2449]
[1]
  effect of FL on dose response curve for inhibition of FLT3 autophosphorylation: upward shift in the dose response curves
  effect of addition of FL on inhibition at the highest doses used: loss of complete inhibition

## CNC(=O)c1cc(Oc2ccc(NC(=O)Nc3ccc(Cl)c(C(F)(F)F)c3)cc2)ccn1 [sorafenib, Sorafenib]
[1]
  effect of FL on dose response curve for inhibition of FLT3 autophosphorylation: upward shift in the dose response curves
  effect of addition of FL on inhibition at the highest doses used: loss of complete inhibition

## C[C@]12O[C@H](C[C@]1(O)CO)n1c3ccccc3c3c4c(c5c6ccccc6n2c5c31)CNC4=O [lestaurtinib, Lestaurtinib]
[1]; 10 μM in plasma, 3 ng/mL FL
  FLT3 autophosphorylation remaining with FL: significant residual FLT3 autophosphorylation
[1]
  effect of FL on dose response curve for inhibition of FLT3 autophosphorylation: upward shift in the dose response curve
FLT3 [2]; AML15 trial (newly diagnosed AML), Day 15 trough
  samples below 15% of baseline FLT3 activity: all 18
FLT3 [2]; course 1, 18 samples
  mean PIA value: 3 % of baseline
FLT3 [2]; courses 2 through 4, 18 samples
  mean PIA value: 6.8%
FLT3 [2]; Cephalon 204 trial (relapsed AML), Day 15 trough, 78 samples
  samples achieving target level of inhibition (FLT3 below 15% of baseline): 62%
FLT3 [3]
  trough levels in vivo sufficient to induce FLT3 inhibition to 15% of baseline: 5 µM

B1: Recombinant human FL (FLT3 ligand), PeproTech (ligand)
chain: TQDCSFQHSPISSDFAVKIRELSDYLLQDYPVTVASNLQDEELCGGLWRLVLAQRWMERLKTVAGSKMQGLLERVNTEIHFVTKCAFQPPPSCLRFVQTNISRLLQETSEQLVALKPWITRQNFSRCLELQCQPDSSTLPPPWSPRPLEATAPTA
[4]
  FLT3 phosphorylation (anti-FLT3 IP, 4G10 immunoblot, densitometry) in FL-/- MEF-FLT3 cells, FL 100 ng/mL 15 min: > 4 fold
[5]
  AKT phosphorylation in BaF3/ITD cells after FL stimulation: 1.3 fold
  FLT3 phosphorylation (anti-FLT3 IP, 4G10 immunoblot, densitometry) in FL-/- MEF-ITD cells, FL 100 ng/mL 15 min: > 4 fold
  FLT3 phosphorylation in TF1/ITD cells, exogenous FL 15 min: > 2 fold
  STAT5 phosphorylation in TF1/ITD cells after FL stimulation: 1.8 fold
  apoptotic population (Annexin V/7AAD, FACS) of TF1/ITD cells, 48 h serum-free, with FL: 49.5%
  apoptotic population (Annexin V/7AAD, FACS) of TF1/ITD cells, 48 h serum-free, without FL: 61.3%
[6]
  AKT phosphorylation in BaF3/TKD cells after FL stimulation: 2.2 fold
  FLT3 phosphorylation (anti-FLT3 IP, 4G10 immunoblot, densitometry) in FL-/- MEF-TKD cells, FL 100 ng/mL 15 min: > 4 fold
  FLT3 phosphorylation in TF1/TKD cells, exogenous FL 15 min: > 2 fold
  STAT5 phosphorylation in TF1/TKD cells after FL stimulation: 1.8 fold
  apoptotic population (Annexin V/7AAD, FACS) of TF1/TKD cells, 48 h serum-free, with FL: 31.6%
  apoptotic population (Annexin V/7AAD, FACS) of TF1/TKD cells, 48 h serum-free, without FL: 40.2%

B2: secreted form of FL expressed from a lentiviral vector (coding sequence from pUMVC3-hFLex plasmid) (ligand)
chain: TQDCSFQHSPISSDFAVKIRELSDYLLQDYPVTVASNLQDEELCGGLWRLVLAQRWMERLKTVAGSKMQGLLERVNTEIHFVTKCAFQPPPSCLRFVQTNISRLLQETSEQLVALKPWITRQNFSRCLELQCQPDSSTLPPPWSPRPLEATAPTAP
[4]
  FLT3 phosphorylation in FL-/- MEF-FLT3 cells stably expressing FL, no exogenous FL: > 3 fold
[5]
  FLT3 phosphorylation in FL-/- MEF-ITD cells stably expressing FL, no exogenous FL: > 3 fold
[6]
  FLT3 phosphorylation in FL-/- MEF-TKD cells stably expressing FL, no exogenous FL: > 3 fold
